{"source": "patent US5635216A", "about": "“Microparticle compositions containing peptides, and methods for the preparation thereof” (Eli Lilly and Company, priority 1993, dated 1997)", "molecules": {"B1": {"name": "4-methylhippuroyl (1) porcine GHRH (2-76)--OH (peptide)", "chain": "GADAIFTNNYRRVLTQLSARRLLQDILSRQQGERNQEQGARVRLGRQVDSLWADQRQLALESILATLLQEHRNSQG", "modifications": "4-methylhippuroyl N-terminus", "notes": "analog of a natural porcine GHRH prohormone"}}, "key": {"[1]": {"system": "finishing swine", "test": "Serum growth hormone levels in finishing swine after subcutaneous injection", "type": "in vivo", "settings": "b137 study, FIGS. 3 and 4; barrows, 3 micrograms/kg/day injected twice per day; all time periods for 15 days", "procedure": "(§1) The microparticles prepared in accordance with the previous examples were used to determine the effect of somatogenin (LY293404) concentration in different PLA/PGA microparticle concentrations. Payout characteristics were measured by urinary urea nitrogen excretion and serum growth hormone levels in finishing swine. The microparticle formulations were placed in suspension, using 2% W/V sodium carboxyl-methyl-cellulose 330 (NaCMC) in Nano-pure II purified water. The suspension was injected subcutaneously in the flank. […] Urinary nitrogen reduction is a measurement of growth hormone which is stimulated by somatogenin release from microparticles. […] The reduction was the greatest for the highest loaded (25%) microparticles, and lowest for the lowest (5%) loaded microparticles. […] The vertical bars in the figures represent the relative standard deviations. The microparticles prepared in accordance with the previous examples were used to determine the payout characteristics of somatogenin (LY293404) when administered in different PLA/PLG microparticle formulations as measured by urinary urea nitrogen excretion and serum growth hormone levels in finishing swine. The microparticle formulations were placed in suspension, using 2% W/V sodium carboxyl-methyl-cellulose 330 (NaCMC) in Nano-pure II purified water. The suspension was injected subcutaneously in the flank. […]"}, "[2]": {"system": "finishing swine", "test": "Urinary urea nitrogen excretion in finishing swine after subcutaneous injection", "type": "in vivo", "settings": "b137 study, FIGS. 3 and 4; barrows, 3 micrograms/kg/day injected twice per day; all time periods for 15 days", "procedure": "as §1"}}}
{"molecule": "B1", "values": [{"measurement": "serum GH levels", "setting": "[1]", "value": "elevation"}, {"measurement": "urinary urea excretion", "setting": "[2]", "value": "reduction"}]}
